T1: HTRA4, P83105
T1 sequence (P83105 378-476, limits assumed, looked up): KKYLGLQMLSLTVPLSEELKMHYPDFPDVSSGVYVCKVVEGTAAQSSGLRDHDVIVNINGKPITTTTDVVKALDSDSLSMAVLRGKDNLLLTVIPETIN

T2: PTPN13_1, Q12923
T2 sequence (Q12923 1088-1188, limits assumed, looked up): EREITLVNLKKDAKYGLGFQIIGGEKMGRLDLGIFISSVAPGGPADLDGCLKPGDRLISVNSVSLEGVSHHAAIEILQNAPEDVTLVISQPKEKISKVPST

T3: APBA3_1, O96018
T3 sequence (O96018 389-490, limits assumed, looked up): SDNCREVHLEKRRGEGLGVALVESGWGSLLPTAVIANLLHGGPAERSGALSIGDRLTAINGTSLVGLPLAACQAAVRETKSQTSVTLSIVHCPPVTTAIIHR

T4: TIAM2, Q8IVF5
T4 sequence (Q8IVF5 885-986, limits assumed, looked up): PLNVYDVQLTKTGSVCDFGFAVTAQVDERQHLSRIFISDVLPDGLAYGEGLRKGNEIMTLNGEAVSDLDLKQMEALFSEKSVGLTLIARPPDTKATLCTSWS

T5: RHPN1, Q8TCX5
T5 sequence (Q8TCX5 508-602, limits assumed, looked up): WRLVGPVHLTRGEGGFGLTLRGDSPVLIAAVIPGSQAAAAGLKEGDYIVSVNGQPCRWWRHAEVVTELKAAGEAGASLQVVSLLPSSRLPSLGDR

T6: SNTG2, Q9NY99
T6 sequence (Q9NY99 68-166, limits assumed, looked up): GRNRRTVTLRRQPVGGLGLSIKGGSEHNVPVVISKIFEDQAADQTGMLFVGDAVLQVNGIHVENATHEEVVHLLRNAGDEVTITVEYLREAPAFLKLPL

T7: RAPGEF6, Q8TEU7
T7 sequence (Q8TEU7 525-625, limits assumed, looked up): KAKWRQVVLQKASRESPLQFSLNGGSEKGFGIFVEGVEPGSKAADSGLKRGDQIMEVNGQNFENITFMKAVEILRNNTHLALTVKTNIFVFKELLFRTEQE

T8: FRMPD1, Q5SYB0
T8 sequence (Q5SYB0 52-145, limits assumed, looked up): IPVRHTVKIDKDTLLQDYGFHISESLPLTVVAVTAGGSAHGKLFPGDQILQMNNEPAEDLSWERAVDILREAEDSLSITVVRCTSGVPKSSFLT

T9: PDZD7_3, Q9H5P4
T9 sequence (Q9H5P4 857-944, limits assumed, looked up): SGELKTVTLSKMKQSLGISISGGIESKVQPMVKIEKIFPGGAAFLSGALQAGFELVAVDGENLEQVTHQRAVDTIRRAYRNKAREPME

T10: DVL3, Q92997
T10 sequence (Q92997 244-331, limits assumed, looked up): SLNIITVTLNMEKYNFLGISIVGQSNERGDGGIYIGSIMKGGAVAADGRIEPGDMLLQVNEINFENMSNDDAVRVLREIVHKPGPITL

T11: SIPA1L2, Q9P2F8
T11 sequence (Q9P2F8 945-1036, limits assumed, looked up): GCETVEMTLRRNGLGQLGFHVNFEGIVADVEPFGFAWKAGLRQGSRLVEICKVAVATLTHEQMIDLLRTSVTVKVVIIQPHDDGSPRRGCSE


Biological target: T1, HTRA4, P83105
Assay: holdup assay
Set-up: key: below the threshold = too weak to quantify, mostly under pKd 3.1 to 4
Settings: plain residues with an end cap or a label only (N-terminal biotin on a linker: ado-ado)

pKd	Binder
4.1	ARESQKVSHV [FAM110B, Q8TC76]

Biological target: T2, PTPN13_1, Q12923
Assay: holdup assay
Set-up: key: below the threshold = too weak to quantify, mostly under pKd 3.1 to 4
Settings: plain residues with an end cap or a label only (N-terminal biotin on a linker: ado-ado)

pKd	Binder
below the threshold	ARESQKVSHV [FAM110B, Q8TC76]

Biological target: LNX1_2, Q8TBB1
Sequence (Q8TBB1 371-470): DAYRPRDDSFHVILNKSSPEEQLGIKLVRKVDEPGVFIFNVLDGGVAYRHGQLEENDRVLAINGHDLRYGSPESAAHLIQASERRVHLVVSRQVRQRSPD
Assay: holdup assay
Set-up: key: below the threshold = too weak to quantify, mostly under pKd 3.1 to 4
Settings: plain residues with an end cap or a label only (N-terminal biotin on a linker: ado-ado)

pKd	Binder
below the threshold	ARESQKVSHV [FAM110B, Q8TC76]

Biological target: FRMPD2_3, Q68DX3
Sequence (Q68DX3 1073-1166): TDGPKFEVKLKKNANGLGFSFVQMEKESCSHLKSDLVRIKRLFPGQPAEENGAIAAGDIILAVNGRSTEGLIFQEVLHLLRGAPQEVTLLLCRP
Assay: holdup assay
Set-up: key: below the threshold = too weak to quantify, mostly under pKd 3.1 to 4
Settings: plain residues with an end cap or a label only (N-terminal biotin on a linker: ado-ado)

pKd	Binder
below the threshold	ARESQKVSHV [FAM110B, Q8TC76]

Biological target: FRMPD4, Q14CM0
Sequence (Q14CM0 67-160): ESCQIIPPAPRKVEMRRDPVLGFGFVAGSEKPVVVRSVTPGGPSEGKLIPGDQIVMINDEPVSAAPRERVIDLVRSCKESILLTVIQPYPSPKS
Assay: holdup assay
Set-up: key: below the threshold = too weak to quantify, mostly under pKd 3.1 to 4
Settings: plain residues with an end cap or a label only (N-terminal biotin on a linker: ado-ado)

pKd	Binder
below the threshold	ARESQKVSHV [FAM110B, Q8TC76]

Biological target: NHERF4_4, Q86UT5
Sequence (Q86UT5 464-550): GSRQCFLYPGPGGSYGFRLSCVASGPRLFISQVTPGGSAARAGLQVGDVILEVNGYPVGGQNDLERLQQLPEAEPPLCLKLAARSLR
Assay: holdup assay
Set-up: key: below the threshold = too weak to quantify, mostly under pKd 3.1 to 4
Settings: plain residues with an end cap or a label only (N-terminal biotin on a linker: ado-ado)

pKd	Binder
below the threshold	ARESQKVSHV [FAM110B, Q8TC76]

Biological target: T3, APBA3_1, O96018
Assay: holdup assay
Set-up: key: below the threshold = too weak to quantify, mostly under pKd 3.1 to 4
Settings: plain residues with an end cap or a label only (N-terminal biotin on a linker: ado-ado)

pKd	Binder
below the threshold	ARESQKVSHV [FAM110B, Q8TC76]

Biological target: Inadl_6, Q8NI35
Sequence (Q8NI35 1058-1167): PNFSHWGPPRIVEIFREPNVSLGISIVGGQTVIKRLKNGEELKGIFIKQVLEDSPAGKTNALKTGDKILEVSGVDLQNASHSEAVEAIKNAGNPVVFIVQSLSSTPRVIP
Assay: holdup assay
Set-up: key: below the threshold = too weak to quantify, mostly under pKd 3.1 to 4
Settings: plain residues with an end cap or a label only (N-terminal biotin on a linker: ado-ado)

pKd	Binder
4.05	ARESQKVSHV [FAM110B, Q8TC76]

Biological target: T4, TIAM2, Q8IVF5
Assay: holdup assay
Set-up: key: below the threshold = too weak to quantify, mostly under pKd 3.1 to 4
Settings: plain residues with an end cap or a label only (N-terminal biotin on a linker: ado-ado)

pKd	Binder
below the threshold	ARESQKVSHV [FAM110B, Q8TC76]

Biological target: T5, RHPN1, Q8TCX5
Assay: holdup assay
Set-up: key: below the threshold = too weak to quantify, mostly under pKd 3.1 to 4
Settings: plain residues with an end cap or a label only (N-terminal biotin on a linker: ado-ado)

pKd	Binder
4.72	ARESQKVSHV [FAM110B, Q8TC76]

Biological target: GRIP2_4, Q9C0E4
Sequence (Q9C0E4 446-548): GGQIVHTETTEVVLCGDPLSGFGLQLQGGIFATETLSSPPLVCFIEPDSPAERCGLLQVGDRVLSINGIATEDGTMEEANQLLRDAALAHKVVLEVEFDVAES
Assay: holdup assay
Set-up: key: below the threshold = too weak to quantify, mostly under pKd 3.1 to 4
Settings: plain residues with an end cap or a label only (N-terminal biotin on a linker: ado-ado)

pKd	Binder
below the threshold	ARESQKVSHV [FAM110B, Q8TC76]

Biological target: MAGI2_6, Q86UL8
Sequence (Q86UL8 1141-1229): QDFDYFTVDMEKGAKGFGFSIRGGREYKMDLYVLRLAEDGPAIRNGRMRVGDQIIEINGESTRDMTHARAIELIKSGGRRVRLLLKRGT
Assay: holdup assay
Set-up: key: below the threshold = too weak to quantify, mostly under pKd 3.1 to 4
Settings: plain residues with an end cap or a label only (N-terminal biotin on a linker: ado-ado)

pKd	Binder
4.43	ARESQKVSHV [FAM110B, Q8TC76]

Biological target: DLG2_3, Q15700
Assay: holdup assay
Set-up: key: below the threshold = too weak to quantify, mostly under pKd 3.1 to 4
Settings: plain residues with an end cap or a label only (N-terminal biotin on a linker: ado-ado)

pKd	Binder
3.62	ARESQKVSHV [FAM110B, Q8TC76]

Biological target: PDZRN4_1, Q6ZMN7
Sequence (Q6ZMN7 213-318): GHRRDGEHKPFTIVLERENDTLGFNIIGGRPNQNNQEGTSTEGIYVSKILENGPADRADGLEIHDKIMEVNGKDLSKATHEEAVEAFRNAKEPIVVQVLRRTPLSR
Assay: holdup assay
Set-up: key: below the threshold = too weak to quantify, mostly under pKd 3.1 to 4
Settings: plain residues with an end cap or a label only (N-terminal biotin on a linker: ado-ado)

pKd	Binder
below the threshold	ARESQKVSHV [FAM110B, Q8TC76]

Biological target: FRMPD2_1, Q68DX3
Sequence (Q68DX3 770-861): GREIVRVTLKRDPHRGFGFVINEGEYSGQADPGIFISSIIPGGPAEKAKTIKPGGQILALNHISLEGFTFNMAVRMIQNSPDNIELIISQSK
Assay: holdup assay
Set-up: key: below the threshold = too weak to quantify, mostly under pKd 3.1 to 4
Settings: plain residues with an end cap or a label only (N-terminal biotin on a linker: ado-ado)

pKd	Binder
below the threshold	ARESQKVSHV [FAM110B, Q8TC76]

Biological target: GRASP, Q7Z6J2
Sequence (Q7Z6J2 96-193): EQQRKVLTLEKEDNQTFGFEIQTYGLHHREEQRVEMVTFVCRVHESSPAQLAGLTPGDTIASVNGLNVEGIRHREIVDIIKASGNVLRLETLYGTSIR
Assay: holdup assay
Set-up: key: below the threshold = too weak to quantify, mostly under pKd 3.1 to 4
Settings: plain residues with an end cap or a label only (N-terminal biotin on a linker: ado-ado)

pKd	Binder
3.8	ARESQKVSHV [FAM110B, Q8TC76]

Biological target: T6, SNTG2, Q9NY99
Assay: holdup assay
Set-up: key: below the threshold = too weak to quantify, mostly under pKd 3.1 to 4
Settings: plain residues with an end cap or a label only (N-terminal biotin on a linker: ado-ado)

pKd	Binder
4.08	ARESQKVSHV [FAM110B, Q8TC76]

Biological target: LNX1_1, Q8TBB1
Sequence (Q8TBB1 261-371): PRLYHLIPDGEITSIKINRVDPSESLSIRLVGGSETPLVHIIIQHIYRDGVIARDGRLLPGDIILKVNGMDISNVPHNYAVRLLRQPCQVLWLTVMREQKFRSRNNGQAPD
Assay: holdup assay
Set-up: key: below the threshold = too weak to quantify, mostly under pKd 3.1 to 4
Settings: plain residues with an end cap or a label only (N-terminal biotin on a linker: ado-ado)

pKd	Binder
3.97	ARESQKVSHV [FAM110B, Q8TC76]

Biological target: T7, RAPGEF6, Q8TEU7
Assay: holdup assay
Set-up: key: below the threshold = too weak to quantify, mostly under pKd 3.1 to 4
Settings: plain residues with an end cap or a label only (N-terminal biotin on a linker: ado-ado)

pKd	Binder
below the threshold	ARESQKVSHV [FAM110B, Q8TC76]

Biological target: T8, FRMPD1, Q5SYB0
Assay: holdup assay
Set-up: key: below the threshold = too weak to quantify, mostly under pKd 3.1 to 4
Settings: plain residues with an end cap or a label only (N-terminal biotin on a linker: ado-ado)

pKd	Binder
below the threshold	ARESQKVSHV [FAM110B, Q8TC76]

Biological target: ARHGEF12, Q9NZN5-2
Sequence (Q9NZN5 other isoform, or with tags, fused parts or gaps): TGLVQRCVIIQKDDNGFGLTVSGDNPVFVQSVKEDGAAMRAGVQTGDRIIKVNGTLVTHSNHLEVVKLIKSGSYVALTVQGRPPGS
Assay: holdup assay
Set-up: key: below the threshold = too weak to quantify, mostly under pKd 3.1 to 4
Settings: plain residues with an end cap or a label only (N-terminal biotin on a linker: ado-ado)

pKd	Binder
4.58	ARESQKVSHV [FAM110B, Q8TC76]

Biological target: FRMPD2_2, Q68DX3
Sequence (Q68DX3 944-1038): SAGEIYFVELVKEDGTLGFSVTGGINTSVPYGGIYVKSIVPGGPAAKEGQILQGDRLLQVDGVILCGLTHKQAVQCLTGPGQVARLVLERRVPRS
Assay: holdup assay
Set-up: key: below the threshold = too weak to quantify, mostly under pKd 3.1 to 4
Settings: plain residues with an end cap or a label only (N-terminal biotin on a linker: ado-ado)

pKd	Binder
4.31	ARESQKVSHV [FAM110B, Q8TC76]

Biological target: Inadl_8, Q8NI35
Sequence (Q8NI35 1425-1530): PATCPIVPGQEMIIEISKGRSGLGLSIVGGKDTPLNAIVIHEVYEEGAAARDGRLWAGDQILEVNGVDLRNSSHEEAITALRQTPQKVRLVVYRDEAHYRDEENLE
Assay: holdup assay
Set-up: key: below the threshold = too weak to quantify, mostly under pKd 3.1 to 4
Settings: plain residues with an end cap or a label only (N-terminal biotin on a linker: ado-ado)

pKd	Binder
4.8	ARESQKVSHV [FAM110B, Q8TC76]

Biological target: MAGI2_3, Q86UL8
Sequence (Q86UL8 600-682): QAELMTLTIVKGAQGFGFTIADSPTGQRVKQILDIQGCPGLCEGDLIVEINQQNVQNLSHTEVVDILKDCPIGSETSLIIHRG
Assay: holdup assay
Set-up: key: below the threshold = too weak to quantify, mostly under pKd 3.1 to 4
Settings: plain residues with an end cap or a label only (N-terminal biotin on a linker: ado-ado)

pKd	Binder
4.25	ARESQKVSHV [FAM110B, Q8TC76]

Biological target: T9, PDZD7_3, Q9H5P4
Assay: holdup assay
Set-up: key: below the threshold = too weak to quantify, mostly under pKd 3.1 to 4
Settings: plain residues with an end cap or a label only (N-terminal biotin on a linker: ado-ado)

pKd	Binder
4.63	ARESQKVSHV [FAM110B, Q8TC76]

Biological target: T10, DVL3, Q92997
Assay: holdup assay
Set-up: key: below the threshold = too weak to quantify, mostly under pKd 3.1 to 4
Settings: plain residues with an end cap or a label only (N-terminal biotin on a linker: ado-ado)

pKd	Binder
below the threshold	ARESQKVSHV [FAM110B, Q8TC76]

Biological target: T11, SIPA1L2, Q9P2F8
Assay: holdup assay
Set-up: key: below the threshold = too weak to quantify, mostly under pKd 3.1 to 4
Settings: plain residues with an end cap or a label only (N-terminal biotin on a linker: ado-ado)

pKd	Binder
below the threshold	ARESQKVSHV [FAM110B, Q8TC76]

From article PMC9482650, “Quantitative fragmentomics allow affinity mapping of interactomes” (Nature Communications, 2022)
